Test: soluble fraction after stress (log2 fold change); higher = more stays soluble; pooled small domains, quantitative proteomics
Conditions: stress: 50 degC
Summary of the method: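 The stress applied to every library was 50°C. These custom libraries of small protein domains were pooled and measured at high throughput with quantitative proteomics as the read-out. Aggregation propensity is expressed as the base-two logarithm of the fold change in how much of each protein remains soluble. The higher the value, the more of that protein stays in solution.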

| Sequence | soluble fraction (log2) |
| --- | --- |
| HMGPGFVGGSVLSGGNRGEGDPVANAQVFITDMDDNVVAFTKTDAEGNFDMTNLAYGDYKMYVDILNK | -0.0166 |
| HMYAVQKGDTLKKIADQFGISVDTIKWANDMKGDALSIDQELKIP | 0.057 |
| HMSILSIGLERGMKKGVAWGIAKSILDILEETGPVSEKTREMIVTETDAERLSAWVKKAARSNSEEDFLSK | -0.631 |
| HMGSEISLNAFNIPKGSVSVTAGGTKLVENQDYTVDYTLGRIKILNEGILNSGVPIQVNFENNTLFN | 0.0829 |
| HMIPRNLEDLVRENQIGLVILKIVEIIGEDNIRDLDPETIYFINRILNELNLKKIRNNILSEALPPR | -1.31 |
| HMSIGLEELVGSHGEAITDLRPAGQVSIAARRISAVSEGDFINKGDSVEVLSVEGYRVMVRKLET | 0.00441 |
| HMLQESDPEALRGIVKSVLVDHAAVAEEYRAGKQSVLQFLVGQGMKASKGAGNPGLIRDLMLEEL | -0.00903 |
| HMPPSGPWEQDPPSEAQLKPFNEAMKRTADIDVDLYEKAKKALNDGTITKGNIYDWINREDSPWVLQDGS | 0.141 |
| HMYQPLRDVIFETLRKAIVSGDIKPGERLMEVSLANQMGVSRTPVREAIRRLEAEGLVTMTPRKGTHVAE | -0.399 |
| HMQVSDLSAIDSLIDKVLSEQQAAVQDFRSGQGKAMGFLIGKVMQASDGKANPKVIRELMGKKLA | 0.159 |
| HMLQARKFTHIQGYEFEAEFLRTNGEFVELQDPQGRKKWFPISNFIQDDKDFIKEQAGNLSS | -0.0494 |
| HMITQQEFQQKLEALLSRAEAESFHIKKEEAESFFSGDELTGEQMKLVFDYLLSKKIIVEGYLK | -0.0863 |
| HMTKEGVNISITADGVQLSTESPNRVSIFNVNGTKVWEGIAPANVSLQKGVYILQTANGNTKFV | 0.265 |
| HMIEDMQQWIRQIREIVSNRLDLTRNISDDEIREVISDIVMEQSRQQYMSLNEKKTLMEGVFNSMR | -0.157 |
| HMKRLPFSFAKRFGVVVEDGEPPIVHHRDGASAETLLEVRRRLGQVFTLQRHDAEAFERLLTQAYQR | -0.383 |
| HMPSTKDGIKEFLSSGAMKGIGRKTASAIVSRFGIDTLKIIEQEPQRLTEVSGIGKKTAQRIAEAFGKH | -0.103 |
| HMKNKIYGTIVSSTSGEETVYKVFQVDSSKDITYLFRPDMIRLAHENNQALEFNEETGRGKRIEMSDLPK | 0.0213 |
| HMKINYNEFLRRFLGEKEGDIIEMETGKRIGTHKGYWFHTIGQRKGLGLGGGPWFVIRKDIDENIIYVSHG | -1.06 |
| HMQSYSTIIGVIELRLSGIGYRTTKARYGIGNSTVTLIMNRFKETGFTLDDLKTMEPTKVEALFYPP | -0.873 |

| Sequence | soluble fraction (log2) |
| --- | --- |
| HMSTSAAELLRTARQQAGMSQSAVAELAKTSQSAIAMYEAGNREPSLPVLQRLLAATGHQLSLSVLP | -0.228 |
| HMSPEVEEISIDHLKAGMRILSDLRLPNGTLVAPKGSVVDAHFIKIVENYVISYFGNPFPDRIKVIM | -1.4 |
| HMIMLDRILKIMDYNKFTPSEFADVLEIDRSRLSHILNGRNKPSLEIVMKILEKFPEISSDWLLFGSGNML | -1.49 |
| HMQKPELLAPAGSLEKAKTAFKYGADAVYMGTSNLSLRSRVTVDDDELIKTIEYAHSINKKVYAALNIYAR | 0.00596 |
| HMSRSKLNRLDKIKKMLIAQTGISIKEFSASLNVSEITIRRDLNLLEEQGFIRLVNGVAIYRM | -1.55 |
| HMPWLIAVTVDGVNLPRFLRRAGEMGLLLTGVRIRGKHLSAFAREDDVPPLRMMAENGGWRFSVGN | -1.61 |
| HMHMNFGEILQTKRKEKGFTQEELAHQLLVSSKTISNWETNKTTPDIDNVIRISQLFDISLNQLLLE | -0.379 |
| HMNVNTNTILKSLMETYPDSTVFKKAEIVSIANSLGFKKSDYSPLTSTDNRTDVRGQYDLSAVIIPMRESN | -0.13 |
| HMPRFDINFKVGEVVTIKGGSFDGQQGEISEIDHEHGKIKVMLEVLGRLTPVEVEHTEIEKI | 0.176 |
| HMREGLRHLRVRMPGGAGETLAMLYREGEVLSQSSDGAFIEVEIRVAQSVAGRLLQMPGVQLTEEVG | -0.21 |
| HMLQVSDENFVVELVQKVLLDNPSSVQEYKNGKESVLQFLIGQAMKASKGTANPQIVKEIMLKLL | -0.314 |
| HMGVGTTDERLAVLNQIASRQTEALEKLGPNNPLVGLGQIRNTLSKMLEISGYPDSNQFFKQVPLDYEPPP | 0.173 |
| HMNKADFLRKLDRELSVLDQEERKEILSFYEERFYTGTNYENKTELDIINELENPEIIAKNVLEEYGV | -0.154 |
| HMEWNPEKQHLLENYITNYSRQLNDTGLFYKNLDWNYIFNLVGVDDQEFLMLKIDEIYDESINVY | -0.521 |
| HMVFTEEERAEYREKMLDAGFDLLKQYGMTHMSVAKITEAAGIGVSTFYNFFSSKEEYVYEVLQYRRRK | -1.25 |
| HMKRTFGEISPLPSGRYRARYRGPDGERYPAPVTFLSRMDAETWLSAQARKVSSGDWTPPVGVVA | -0.16 |
| HMNSEPKTKLQEIAQERGLAAPVYETTHTGPDHDRIFSASVTVGDVVAAGEARSRKGAESEAAIAAIKALG | 0.212 |
| HMDIRLMPGTVLTREYQGIEHRVTVAQDGQYEFEGRRYPSLSMIAREITGTRWSGPLFFGVK | -0.657 |
| HMKRDRLYGITIYLLNHGRTSAKTLAEYFEVSVRTIQRDMDALSMAKIPIIAYPGSDGGYEIQEGYRL | -3.1 |
